According to the supplement of paper PMC6757056:
± gives the standard deviation of the averaged measurements.

B1: library; a variant is named by its letters at N, in order (parent)
chain: GCUGUCACCGAGAAACUGUGAAGUAUAUCUUAAACCUGGGCACUUAAAAGAUAUAUGGAGUUAGUAGUGCAACCUGCUCGGUCUGAUGAGUCCNNNNNNGGACGAAACAGC

Tests used:
cyclic di-GMP [1] = variants of: B1; assay: normalized RNA/DNA level without ligand (relative to sTRSVctl = 100) (log10 (% of sTRSVctl)); HEK293T; ligand: cyclic di-GMP (c-di-GMP-II aptamer); higher = less ribozyme self-cleavage, higher mRNA level; conditions: reporter: mCherry (pCS4076), ligand present: no
Method in brief: (§1)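 Total RNA, extracted with EDTA 72 h after HEK293T cells were transfected with 4 µg per 6-well well of reporter-linked ribozyme switch library plasmids, was reverse-transcribed, amplified, barcoded and sequenced. Ligand, if used, was added 1 h before transfection. RNA level was derived from RNA reads divided by DNA reads and normalized to a spiked-in non-cleaving sequence or to the top sequences. This was multiplied by 100 and log10-transformed, with the top set of 25 sequences and a ≥100 DNA read minimum.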

cyclic di-GMP [2] = variants of: B1; assay: normalized RNA/DNA level with ligand (relative to sTRSVctl = 100) (log10 (% of sTRSVctl)); HEK293T; ligand: cyclic di-GMP (c-di-GMP-II aptamer); ligand concentration (+) RNA-Seq: 1 mM; higher = less ribozyme self-cleavage, higher mRNA level; conditions: reporter: mCherry (pCS4076), ligand present: yes
Method in brief: as §1

| Variant | normalized RNA/DNA level without ligand (log10) (cyclic di-GMP [1]) | normalized RNA/DNA level with ligand (log10) (cyclic di-GMP [2]) |
| --- | --- | --- |
| UCGCAC | 1.697 ± 0.015 | 1.86 ± 0.084 |
| UCGCAU | 1.572 ± 0.0067 | 1.76 ± 0.092 |
| ACGCAA | 1.47 ± 0.075 | 1.64 ± 0.11 |
| ACGCAU | 1.42 ± 0.15 | 1.68 ± 0.075 |
| ACGCAC | 1.61 ± 0.018 | 1.79 ± 0.11 |
| CCCGAU | 1.64 ± 0.027 | 1.83 ± 0.12 |
| CCCGAC | 1.7 ± 0.018 | 1.81 ± 0.14 |
| CCCGAG | 1.56 ± 0.065 | 1.76 ± 0.11 |
| GCGACA | 1.52 ± 0.091 | 1.73 ± 0.084 |
| GCGACU | 1.57 ± 0.018 | 1.73 ± 0.089 |
| UCCCGA | 1.77 ± 0.059 | 1.87 ± 0.1 |
| UCCCGG | 1.855 ± 0.016 | 1.93 ± 0.069 |
| UCCCGC | 1.801 ± 0.018 | 1.91 ± 0.1 |
| UCCCUC | 1.78 ± 0.038 | 1.89 ± 0.14 |
| UCCCUU | 1.69 ± 0.056 | 1.86 ± 0.14 |
| UCCCUA | 1.696 ± 0.014 | 1.84 ± 0.092 |
| GCGCUG | 1.77 ± 0.049 | 1.84 ± 0.14 |
| GCGCUU | 1.61 ± 0.043 | 1.78 ± 0.13 |
| GCGAAC | 1.28 ± 0.15 | 1.54 ± 0.052 |
| GCGAAA | 1.34 ± 0.099 | 1.56 ± 0.096 |
| GCGAAG | 1.45 ± 0.068 | 1.63 ± 0.087 |
| ACCUCU | 1.716 ± 0.0081 | 1.87 ± 0.1 |
| ACCUCG | 1.73 ± 0.056 | 1.83 ± 0.15 |
| ACCUCA | 1.62 ± 0.027 | 1.77 ± 0.12 |

| Variant | normalized RNA/DNA level without ligand (log10) (cyclic di-GMP [1]) | normalized RNA/DNA level with ligand (log10) (cyclic di-GMP [2]) |
| --- | --- | --- |
| UCGAUG | 1.54 ± 0.1 | 1.72 ± 0.14 |
| UCGAUC | 1.62 ± 0.032 | 1.79 ± 0.16 |
| UCGACU | 1.6114 ± 7.1e-07 | 1.82 ± 0.12 |
| UCGACA | 1.619 ± 0.0042 | 1.77 ± 0.12 |
| UCGACG | 1.73 ± 0.0042 | 1.87 ± 0.099 |
| UCCUUU | 1.75 ± 0.021 | 1.9 ± 0.073 |
| UCCUUC | 1.71 ± 0.027 | 1.87 ± 0.11 |
| UCCUUG | 1.74 ± 0.036 | 1.86 ± 0.082 |
| UCCUUA | 1.65 ± 0.025 | 1.83 ± 0.15 |
| UCCCCG | 1.82 ± 0.03 | 1.96 ± 0.11 |
| UCCCCC | 1.83 ± 0.088 | 1.92 ± 0.13 |
| UCCCCU | 1.78 ± 0.033 | 1.9 ± 0.13 |
| GCGGAU | 1.43 ± 0.097 | 1.63 ± 0.11 |
| GCCUGG | 1.78 ± 0.061 | 1.91 ± 0.09 |
| GCCUGU | 1.69 ± 0.043 | 1.88 ± 0.12 |
| GCCUGA | 1.6 ± 0.036 | 1.77 ± 0.069 |
| GCCUGC | 1.78 ± 0.032 | 1.86 ± 0.097 |
| CCCUCU | 1.62 ± 0.03 | 1.8 ± 0.12 |
| CCCUCG | 1.75 ± 0.0059 | 1.91 ± 0.097 |
| ACGAAC | 1.53 ± 0.11 | 1.72 ± 0.067 |
| ACGAAU | 1.31 ± 0.061 | 1.53 ± 0.079 |
| GCGAGU | 1.53 ± 0.071 | 1.69 ± 0.11 |
| GCGAGG | 1.613 ± 0.016 | 1.75 ± 0.16 |
| GCGAGA | 1.41 ± 0.14 | 1.63 ± 0.073 |

| Variant | normalized RNA/DNA level without ligand (log10) (cyclic di-GMP [1]) | normalized RNA/DNA level with ligand (log10) (cyclic di-GMP [2]) |
| --- | --- | --- |
| GCGAGC | 1.55 ± 0.066 | 1.71 ± 0.04 |
| GCGCGC | 1.64 ± 0.07 | 1.8 ± 0.11 |
| GCGCGG | 1.796 ± 0.0029 | 1.87 ± 0.087 |
| GCGCGU | 1.59 ± 0.1 | 1.75 ± 0.044 |
| ACGGCA | 1.648 ± 0.011 | 1.77 ± 0.1 |
| UCCGGG | 1.852 ± 0.016 | 1.93 ± 0.06 |
| UCCGGU | 1.67 ± 0.024 | 1.85 ± 0.1 |
| UCCGGC | 1.79 ± 0.062 | 1.95 ± 0.12 |
| UCCGGA | 1.606 ± 0.0039 | 1.8 ± 0.096 |
| CCCUAA | 1.45 ± 0.081 | 1.64 ± 0.13 |
| CCCUAC | 1.71 ± 0.026 | 1.82 ± 0.1 |
| CCCUAU | 1.62 ± 0.048 | 1.8 ± 0.069 |
| CCGGCA | 1.7 ± 0.026 | 1.79 ± 0.12 |
| CCGGCC | 1.77 ± 0.04 | 1.86 ± 0.15 |
| GCCUAU | 1.662 ± 0.0027 | 1.85 ± 0.13 |
| GCCUAA | 1.59 ± 0.071 | 1.78 ± 0.055 |
| GCCUAC | 1.55 ± 0.059 | 1.72 ± 0.047 |
| GCCUAG | 1.74 ± 0.068 | 1.86 ± 0.16 |
| GCCUCA | 1.737 ± 0.0028 | 1.87 ± 0.068 |
| GCCUCC | 1.71 ± 0.02 | 1.84 ± 0.091 |
| GCCUCG | 1.761 ± 0.0043 | 1.892 ± 0.0091 |
| GCCUCU | 1.721 ± 0.017 | 1.87 ± 0.04 |
| UCCUGU | 1.72 ± 0.018 | 1.88 ± 0.059 |
| UCCUGC | 1.79 ± 0.062 | 1.91 ± 0.053 |

| Variant | normalized RNA/DNA level without ligand (log10) (cyclic di-GMP [1]) | normalized RNA/DNA level with ligand (log10) (cyclic di-GMP [2]) |
| --- | --- | --- |
| UCCUGA | 1.69 ± 0.048 | 1.85 ± 0.1 |
| UCCUGG | 1.82 ± 0.057 | 1.91 ± 0.14 |
| CCCUGG | 1.74 ± 0.022 | 1.85 ± 0.03 |
| CCCUGA | 1.61 ± 0.068 | 1.82 ± 0.068 |
| CCCUGU | 1.75 ± 0.043 | 1.87 ± 0.13 |
| GCCGGG | 1.86 ± 0.089 | 1.93 ± 0.13 |
| GCCGGA | 1.55 ± 0.041 | 1.7 ± 0.11 |
| GCCGGC | 1.56 ± 0.035 | 1.74 ± 0.2 |
| ACCGCU | 1.7 ± 0.028 | 1.86 ± 0.12 |
| ACCGCA | 1.667 ± 0.015 | 1.8 ± 0.11 |
| ACCGCG | 1.72 ± 0.075 | 1.87 ± 0.099 |
| ACCGCC | 1.74 ± 0.057 | 1.89 ± 0.095 |
| ACGAUC | 1.56 ± 0.074 | 1.75 ± 0.085 |
| ACGAUA | 1.45 ± 0.05 | 1.68 ± 0.12 |
| UCCGAC | 1.65 ± 0.062 | 1.79 ± 0.1 |
| UCCGAU | 1.59 ± 0.041 | 1.79 ± 0.08 |
| UCCGAG | 1.64 ± 0.082 | 1.79 ± 0.11 |
| UCCGAA | 1.48 ± 0.015 | 1.69 ± 0.17 |
| ACCCCC | 1.82 ± 0.064 | 1.91 ± 0.14 |
| ACCCCU | 1.74 ± 0.036 | 1.86 ± 0.076 |
| GCGAUG | 1.59 ± 0.06 | 1.79 ± 0.096 |
| GCGAUU | 1.47 ± 0.024 | 1.69 ± 0.19 |
| UCGAGG | 1.772 ± 0.011 | 1.87 ± 0.13 |
| CCCGGC | 1.75 ± 0.031 | 1.88 ± 0.07 |

| Variant | normalized RNA/DNA level without ligand (log10) (cyclic di-GMP [1]) | normalized RNA/DNA level with ligand (log10) (cyclic di-GMP [2]) |
| --- | --- | --- |
| CCCGGG | 1.7187 ± 0.00061 | 1.91 ± 0.14 |
| CCCGGA | 1.48 ± 0.075 | 1.72 ± 0.13 |
| ACGCUU | 1.37 ± 0.076 | 1.6 ± 0.17 |
| ACGCUA | 1.53 ± 0.026 | 1.72 ± 0.13 |
| ACGCUG | 1.62 ± 0.039 | 1.79 ± 0.089 |
| CCGCGA | 1.59 ± 0.053 | 1.76 ± 0.07 |
| CCGCGU | 1.69 ± 0.02 | 1.84 ± 0.17 |
| CCGCGC | 1.74 ± 0.026 | 1.87 ± 0.098 |
| CCGCGG | 1.73 ± 0.044 | 1.85 ± 0.056 |
| ACCGAG | 1.57 ± 0.031 | 1.74 ± 0.11 |
| ACCGAC | 1.61 ± 0.06 | 1.77 ± 0.11 |
| ACCGAU | 1.48 ± 0.072 | 1.67 ± 0.091 |
| UCCGCA | 1.72 ± 0.021 | 1.86 ± 0.14 |
| UCCGCG | 1.774 ± 0.0088 | 1.89 ± 0.083 |
| UCCGCU | 1.75 ± 0.052 | 1.88 ± 0.08 |
| UCCGCC | 1.75 ± 0.076 | 1.89 ± 0.11 |
| ACCGGU | 1.531 ± 0.003 | 1.76 ± 0.08 |
| ACCGGG | 1.84 ± 0.027 | 1.91 ± 0.12 |
| ACCGGC | 1.784 ± 0.0037 | 1.92 ± 0.12 |
| ACCGGA | 1.51 ± 0.13 | 1.71 ± 0.056 |
